Measurements published in paper PMC9751095, “The mitochondrial chaperone TRAP1 regulates F-ATP synthase channel formation” (Cell Death and Differentiation, 2022).

Biological target: T1, recombinant mature human OSCP (human, UniProt P48047 24-213)
T1 construct: human F-ATP synthase subunit OSCP, mature protein
T1 sequence (looked up): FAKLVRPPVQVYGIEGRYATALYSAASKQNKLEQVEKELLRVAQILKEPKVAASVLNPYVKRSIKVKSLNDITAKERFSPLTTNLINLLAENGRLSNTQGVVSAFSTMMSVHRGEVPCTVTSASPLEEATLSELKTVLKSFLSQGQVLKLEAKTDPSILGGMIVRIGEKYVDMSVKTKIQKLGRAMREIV
Test: SPR; Biacore T100, CM5 chip, CyPD immobilized by amine coupling (800-1200 RU); OSCP injected at increasing concentrations; Langmuir interaction model
Settings: both partners purified

B1: purified recombinant human cyclophilin D (enzyme)
chain: not shown
notes: human cyclophilin D, cDNA from a human placenta library; called 'recombinant mature human' for the SPR; also called CyPD; CypD; source: E. coli BL21(DE3)pLysS (plasmid pSUMO-Cyclophilin D), purified
binding result: binds
